Results reported in article PMC7821112 (The New Phytologist, 2020).

T1: GST‐tagged Ghd7 (Grain number, plant height and heading‐date7) (rice (Oryza sativa), UniProt E5RQA1 1-257)
T1 sequence (looked up): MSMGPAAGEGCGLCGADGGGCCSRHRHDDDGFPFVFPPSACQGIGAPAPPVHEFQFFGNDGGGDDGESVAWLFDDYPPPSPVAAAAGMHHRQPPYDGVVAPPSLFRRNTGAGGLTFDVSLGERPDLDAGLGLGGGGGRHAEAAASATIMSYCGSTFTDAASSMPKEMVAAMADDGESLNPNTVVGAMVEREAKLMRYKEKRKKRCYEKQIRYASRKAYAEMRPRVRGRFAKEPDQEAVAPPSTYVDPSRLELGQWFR


How the values were obtained:
[1] = biological target: GST‐tagged Ghd7 (Grain number, plant height and heading‐date7) (rice (Oryza sativa)) (UniProt E5RQA1); assay: pull-down
[2] = biological target: T1, GST‐tagged Ghd7 (Grain number, plant …); assay: pull-down

Sequence of MBP‐tagged Hd1 (Heading date 1) (Q9FDX8 whole entry): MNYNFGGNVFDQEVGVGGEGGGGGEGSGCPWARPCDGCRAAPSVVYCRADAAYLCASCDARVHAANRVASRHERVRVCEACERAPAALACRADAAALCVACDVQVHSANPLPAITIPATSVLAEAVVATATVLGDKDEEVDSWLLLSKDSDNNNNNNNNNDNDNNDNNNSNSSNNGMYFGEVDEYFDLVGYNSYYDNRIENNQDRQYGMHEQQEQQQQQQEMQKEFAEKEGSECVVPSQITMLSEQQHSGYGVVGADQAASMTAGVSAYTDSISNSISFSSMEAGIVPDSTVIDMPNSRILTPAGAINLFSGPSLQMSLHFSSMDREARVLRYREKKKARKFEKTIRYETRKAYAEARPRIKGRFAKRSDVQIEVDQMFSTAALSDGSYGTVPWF

| stoichiometry N [1] | stoichiometry N [2] | Molecule |
| --- | --- | --- |
| 1 |  | MBP‐tagged Hd1 (Heading date 1) (from UniProt Q9FDX8 1-395) (natural protein) |
|  | 1 | MBP‐tagged DTH8 (Days‐to‐heading on chromosome 8) (natural protein, rice (Oryza sativa), UniProt Q0J7P4 1-297, looked up) MKSRKSYGHLLSPVGSPPLDNESGEAAAAAAAGGGGCGSSAGYVVYGGGGGGDSPAKEQDRFLPIANVSRIMKRSLPANAKISKESKETVQECVSEFISFVTGEASDKCQREKRKTINGDDLLWAMTTLGFEAYVGPLKSYLNRYREAEGEKADVLGGAGGAAAARHGEGGCCGGGGGGADGVVIDGHYPLAGGLSHSHHGHQQQDGGGDVGLMMGGGDAGVGYNAGAGSTTTAFYAPAATAASGNKAYCGGDGSRVMEFEGIGGEEESGGGGGGGERGFAGHLHGVQWFRLKRNTN |
